[ ]: non-standard residue; d: D form. pS = N[C@@H](COP(=O)(O)O)C(=O)O; FAM = 5,6-carboxyfluorescein; Ahx = NCCCCCC(=O)O A value given as a limit tells only on which side of the number the result lay.

From article PMC9541495, “Understanding the interaction of 14‐3‐3 proteins with hDMX and hDM2: a structural and biophysical study” (The Febs Journal, 2022) come the findings set out here.

The labels stand for the following.
B1: FAM‐Ahx‐hDMX_(361‐374) ^pSer367 (peptide)
peptide: {FAM-Ahx}-DCRRTI[pS]APVVRPK-NH2
notes: Tracer form used in the FA assays; source: synthetic peptide (Fmoc SPPS, HPLC purified)
B2: FAM‐Ahx‐hDMX_(335‐349) ^pSer342 (peptide)
peptide: {FAM-Ahx}-SKLTHSL[pS]TSDITAI-NH2
notes: hDMX (human double minute 4 protein, hDM4), human, residues 335-349; Tracer form used in the FA assays; source: synthetic peptide (Fmoc SPPS, HPLC purified)
B3: FAM‐Ahx‐hDM2_(180‐192) ^pSer186 (peptide)
peptide: {FAM-Ahx}-QRKRHK[pS]DSISLS-NH2
notes: hDM2 (human double minute 2 protein), human, residues 180-192; Tracer form used in the FA assays; source: synthetic peptide (Fmoc SPPS, HPLC purified)
B4: FAM‐Ahx‐hDM2_(160‐171) ^pSer166 (peptide)
peptide: {FAM-Ahx}-SRRRAI[pS]ETEEN-NH2
notes: hDM2 (human double minute 2 protein), human, residues 160-171; Tracer form used in the FA assays; also called hDM2_(160‐171) ^Ser166; source: synthetic peptide (Fmoc SPPS, HPLC purified)

One experiment deals with T1, 14‐3‐3ε (human, UniProt P62258 1-255).
T1 construct: 14-3-3 epsilon, human, full-length protein from the pProEx HTb-His-14-3-3 construct; Written as the protomer; tag removal is told only for the ∆C proteins; source: E. coli BL21(DE3), purified (Ni2+-NTA, dialysis)
T1 sequence (looked up): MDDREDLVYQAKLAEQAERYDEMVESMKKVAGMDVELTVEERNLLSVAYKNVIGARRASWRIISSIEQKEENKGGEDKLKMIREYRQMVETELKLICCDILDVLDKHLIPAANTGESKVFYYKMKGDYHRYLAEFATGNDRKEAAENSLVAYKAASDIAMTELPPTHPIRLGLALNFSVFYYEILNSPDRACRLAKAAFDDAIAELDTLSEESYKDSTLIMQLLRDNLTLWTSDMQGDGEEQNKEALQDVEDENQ
Put plainly: fluorescence polarisation; fluorescence anisotropy, direct titration: 14-3-3 protein titrated (1/2 dilution series) against 50 nM FAM-Ahx tracer peptide; 10 mM HEPES, 150 mM NaCl, 0.1% Tween 20, 0.1% BSA, pH 7.4; 384 well plates, triplicates; protein concentration as 14-3-3 monomer; 1:1 fit, biphasic curves fitted as two separate 1:1 events (Kd1, Kd2). As to conditions: both partners purified. Background: In fluorescence polarisation assays a small probe gives low polarisation when free and higher when bound to something large.
B1 yielded a Kd of 2.7 ± 0.2 µM.

B2: binding was characterised by a dissociation constant (Kd) of 53.4 ± 2.9 µM.

As for B3, the dissociation constant Kd was over 260 µM.

Consider B4, for which the Kd turned out to be 23 ± 1.2 µM.

For the next experiment, the target named is T2, 14‐3‐3τ (human, UniProt P27348 1-245).
T2 construct: 14-3-3 tau/theta, human, full-length protein from the pProEx HTb-His-14-3-3 construct; Written as the protomer; tag removal is told only for the ∆C proteins; also called τ/θ; source: E. coli BL21(DE3), purified (Ni2+-NTA, dialysis)
T2 sequence (looked up): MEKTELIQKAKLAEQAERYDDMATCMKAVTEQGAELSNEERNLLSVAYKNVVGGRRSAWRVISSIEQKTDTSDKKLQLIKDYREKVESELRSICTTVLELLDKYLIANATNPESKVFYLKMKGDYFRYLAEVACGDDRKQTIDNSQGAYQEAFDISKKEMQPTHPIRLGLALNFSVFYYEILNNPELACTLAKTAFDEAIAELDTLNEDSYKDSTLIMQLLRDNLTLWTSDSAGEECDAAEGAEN
The experiment is described as above. The note with it: both partners purified.
On to B1, for which binding was characterised by a dissociation constant (Kd) of 1.2 ± 0.2 µM.

B2 came in with a Kd of 108 ± 6 µM.

B3 came in with a dissociation constant Kd of over 250 µM.

The molecule B4 returned a Kd of 29.3 ± 2.4 µM.

In a further experiment the target is T3, 14‐3‐3σ (human, UniProt P31947 1-248).
T3 construct: 14-3-3 sigma, human, full-length protein from the pProEx HTb-His-14-3-3 construct (used in the FA assays); Written as the protomer; tag removal is told only for the ∆C proteins; source: E. coli BL21(DE3), purified (Ni2+-NTA, dialysis)
T3 sequence (looked up): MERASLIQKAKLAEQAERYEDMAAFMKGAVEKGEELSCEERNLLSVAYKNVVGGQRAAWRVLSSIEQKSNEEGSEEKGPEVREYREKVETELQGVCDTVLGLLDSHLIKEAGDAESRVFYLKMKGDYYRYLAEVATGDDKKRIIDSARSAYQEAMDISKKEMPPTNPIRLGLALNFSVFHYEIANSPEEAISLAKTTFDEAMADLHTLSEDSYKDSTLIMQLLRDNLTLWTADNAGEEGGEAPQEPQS
The description is as above. The note with it: both partners purified.
In turn, B1 showed a Kd of 3.6 ± 0.4 µM.

Take B2: the Kd amounted to 136 ± 3.6 µM.

For the molecule B3, the Kd was over 170 µM.

For the molecule B4, the Kd was determined as 32.7 ± 1.4 µM.

The target in the next experiment is T4, 14‐3‐3η (human, UniProt Q04917 1-246).
T4 construct: 14-3-3 eta, human, full-length protein from the pProEx HTb-His-14-3-3 construct; Captured on an NTA chip in SPR; source: E. coli BL21(DE3), purified (Ni2+-NTA, dialysis)
T4 sequence (looked up): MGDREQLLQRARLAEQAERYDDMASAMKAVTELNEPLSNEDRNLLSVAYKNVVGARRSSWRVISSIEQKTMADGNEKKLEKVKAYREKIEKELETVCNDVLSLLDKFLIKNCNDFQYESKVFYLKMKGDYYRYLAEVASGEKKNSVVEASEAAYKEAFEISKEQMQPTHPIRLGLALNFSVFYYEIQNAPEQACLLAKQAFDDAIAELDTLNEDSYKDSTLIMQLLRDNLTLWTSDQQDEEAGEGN
Described as above. The note with it: both partners purified.
B1: the Kd amounted to 0.099 ± 0.005 µM.

For B2, binding was put at a Kd of 20 ± 1.2 µM.

B3 yielded a Kd of 31.6 ± 1.9 µM.

For B4, binding was put at a Kd of 10.2 ± 0.3 µM.

For the next experiment, the target named is T5, 14‐3‐3γ (human, UniProt P61981 1-247).
T5 construct: 14-3-3 gamma, human, full-length protein from the pProEx HTb-His-14-3-3 construct; Written as the protomer; tag removal is told only for the ∆C proteins; source: E. coli BL21(DE3), purified (Ni2+-NTA, dialysis)
T5 sequence (looked up): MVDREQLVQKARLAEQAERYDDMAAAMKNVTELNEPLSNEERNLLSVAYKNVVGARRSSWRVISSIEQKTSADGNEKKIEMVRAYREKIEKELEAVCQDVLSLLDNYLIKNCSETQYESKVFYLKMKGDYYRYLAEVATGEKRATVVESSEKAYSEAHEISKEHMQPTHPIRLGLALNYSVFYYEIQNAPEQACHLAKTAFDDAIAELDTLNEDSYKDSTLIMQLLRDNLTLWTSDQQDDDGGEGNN
Described as above. As to conditions: both partners purified.
B1: the Kd was found to be 0.53 ± 0.04 µM.

Take B2: binding was put at a Kd of 37.8 ± 0.7 µM.

Molecule B3 came in with a Kd of 82.9 ± 2.1 µM.

Molecule B4 came in with a Kd of 3.9 ± 0.3 µM.

A word on the Kd: it is the free concentration of one partner at which half of the binding sites on the other are occupied at equilibrium, for simple one-to-one binding.
